Test results reported in publication PMC6033355, “A bi-specific inhibitor targeting IL-17A and MMP-9 reduces invasion and motility in MDA-MB-231 cells” (Oncotarget, 2018).

Molecular target: T1, HD_(N-TIMP2,V3) bi-specific heterodimer (N-TIMP2 fused by a linker to V3, the engineered soluble …)
T1 construct: flexible linker; Order on the chain: N-TIMP2, linker, V3, human IgG1 Fc, 6xHis; Vector pFUSE-hIgG1e3-Fc1; Glycosylated; also called bi-specific fusion protein; source: HEK293F, transiently transfected, secreted, purified (Ni-NTA, gel filtration); not shown: Fc (human IgG1), C-terminal, kept
Experiment: BLI; Octet Red; HD_(N-TIMP2,V3) or V3 loaded on Protein A sensors (10 ug/ml, 300 s); IL-17A or MMP-9CAT in solution at 50, 100, 200 nM; 300 s association, 1800-2500 s dissociation; 30 C; PBS, 1% BSA, 0.05% Tween; 1:1 binding model
Conditions: both partners purified

Kd: 1.65 ± 0.02 nM
B1: MMP-9CAT (soluble MMP-9 catalytic domain) (enzyme)
chain: FQTFEGDLKWHHHNITYWIQNYSEDLPRAVIDDAFARAFALWSAVTPLTFTRVYSRDADIVIQFGVAEHGDGYPFDGKDGLLAHAFPPGPGIQGDAHFDDDELWSLGKGQGYSLFLVAAHEFGHALGLDHSSVPEALMYPMYRFTEGPPLHKDDVNGIRHLY
modifications: Active enzyme, catalytic and structural Zn2+ and Ca2+ (assay buffer has 5 mM CaCl2). Limits are not printed in the text given. Taken by convention from the MMP-9 catalytic domain lacking the …
